Experimental data reported in the supplement of paper PMC9732359.
± gives the uncertainty stated by the source.

Assay: protein stability index of a GFP-peptide fusion (yeast GPS) (PSI 1-4); higher = more stable; sorted into four equal gates, so the index is relative within each strain
Procedure, shortened: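 Each library plasmid carries Cherry plus GFP with a tiled 17-residue yeast protein peptide fused downstream, and the pooled library was carried in yeast. Mid-log cultures in leucine-free medium were sorted into four equal gates by GFP/Cherry ratio. Reads from Illumina sequencing of PCR-amplified plasmids from each gate were assigned to strains by barcodes. Per peptide, the protein stability index was computed as the summed products of gate read frequency and gate number.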

Sequence | protein stability index (doa10∆) | protein stability index (pdr5∆) | protein stability index (san1∆) | protein stability index (ubr1∆)
NTGIVSSTTGMSYVVRI [RPT3] | 3.17 ± 0.11 | 3.04 ± 0.19 | 3.31 ± 0.11 | 3.25 ± 0.09
NTLRMKHGTYDKLDDDG [RPB2] | 2.77 ± 0.077 | 2.83 ± 0.061 | 2.83 ± 0.063 | 2.89 ± 0.045
NTMSAWVNMLLISSSGP [FAS2] | 1.99 ± 0.07 | 1.32 ± 0.051 | 1.37 ± 0.1 | 1.52 ± 0.043
NTNNNNNPANNTNNNNS [SWI1] | 3.06 ± 0.033 | 3 ± 0.03 | 3.344 ± 0.026 | 3.435 ± 0.026
NTNNNNSTGHSSNTNNN [SWI1] | 2.63 ± 0.049 | 2.29 ± 0.05 | 2.41 ± 0.058 | 1.93 ± 0.05
NTSLISLFTYFREAIVA [PRP8] | 1.3 ± 0.049 | 1.49 ± 0.054 | 1.34 ± 0.1 | 1.44 ± 0.049
NTSSKRQKKKPTSAQKS [IRR1] | 2.71 ± 0.084 | 2.59 ± 0.08 | 2.5 ± 0.061 | 2.87 ± 0.07
NTTTRVIPQVEVGNRKH [SNF5] | 2.21 ± 0.2 | 2.46 ± 0.095 | 2.35 ± 0.17 | 2.62 ± 0.094
NVANVSGSTEKAFKICE [SIR3] | 2.96 ± 0.054 | 2.91 ± 0.048 | 3.18 ± 0.043 | 3.11 ± 0.058
NVAVDIINFGEIEQNTE [RPN10] | 3.23 ± 0.092 | 3.39 ± 0.075 | 3.27 ± 0.059 | 3.14 ± 0.066
NVDNQTSDLVKSLGLKL [RPS17A] | 3.2 ± 0.087 | 3.29 ± 0.084 | 3.35 ± 0.066 | 3.06 ± 0.075
NVFARLSRLLSLWEVFQ [RPC82] | 1.78 ± 0.16 | 2.06 ± 0.13 | 2.79 ± 0.14 | 2.38 ± 0.067
NVFGQDNEDSDNLFGET [SWI3] | 3.37 ± 0.13 | 3.7 ± 0.13 | 3.23 ± 0.12 | 3.5 ± 0.094
NVGELIEKNVMESIGSD [RRP4] | 2.54 ± 0.059 | 3.03 ± 0.075 | 2.62 ± 0.098 | 2.39 ± 0.065
NVIDTQRKNGVTNSPLF [ECM29] | 3 ± 0.25 | 3.19 ± 0.091 | 3.09 ± 0.21 | 3.12 ± 0.11
NVIRSLEQEYRLILLLN [RMP1] | 1.44 ± 0.036 | 1.19 ± 0.022 | 1.29 ± 0.071 | 1.35 ± 0.038
NVKFLRIFISNVSENQP [SNF12] | 1.53 ± 0.095 | 1.63 ± 0.075 | 2.02 ± 0.075 | 1.95 ± 0.069
NVKNDVSFNDSQSMVTN [YIL149C/MLP2] | 3.1 ± 0.054 | 3.37 ± 0.081 | 3.07 ± 0.067 | 3.3 ± 0.04
NVKYRAVVFKPFKGEVV [RPB7] | 2.96 ± 0.12 | 2.85 ± 0.047 | 2.43 ± 0.075 | 2.86 ± 0.075
NVLCVNIKSNDFSIRKT [ECM29] | 2.52 ± 0.068 | 2.66 ± 0.099 | 2.58 ± 0.1 | 2.6 ± 0.071
NVLNQINQIFSPEEQRS [GAL11] | 2.83 ± 0.045 | 2.93 ± 0.035 | 2.91 ± 0.039 | 2.81 ± 0.038

Sequence | protein stability index (doa10∆) | protein stability index (pdr5∆) | protein stability index (san1∆) | protein stability index (ubr1∆)
NVMTPREQYETQVALNE [UBP6] | 3.17 ± 0.087 | 3.22 ± 0.16 | 2.83 ± 0.13 | 3.05 ± 0.091
NVNNRFDNFLTEEELQA [BRN1] | 3.07 ± 0.078 | 2.63 ± 0.079 | 3 ± 0.056 | 2.63 ± 0.054
NVQTQYREAPVIYRGPE [RET1] | 2.53 ± 0.095 | 2.97 ± 0.069 | 3.36 ± 0.042 | 3.14 ± 0.051
NVSLIKIEGVATPQDAQ [RPL33A] | 2.74 ± 0.082 | 2.52 ± 0.061 | 2.38 ± 0.11 | 2.37 ± 0.059
NVTGGKAANFIQNQSPQ [SWI1] | 2.77 ± 0.062 | 2.79 ± 0.063 | 2.87 ± 0.051 | 2.99 ± 0.047
NVTKSSVGVIINKMVGN [RPL21A] | 2.17 ± 0.099 | 2.98 ± 0.11 | 2.46 ± 0.19 | 2.91 ± 0.13
NVTQNEQQWITRAQYLA [SRP68] | 1.42 ± 0.08 | 1.54 ± 0.072 | 1.19 ± 0.13 | 1.28 ± 0.064
NWRSFNAKIIDAEVAQF [SRP68] | 2.53 ± 0.071 | 2.56 ± 0.048 | 2.01 ± 0.073 | 2.43 ± 0.098
NYELEKIADNISKDENE [YDL116W/NUP84] | 3.03 ± 0.09 | 3.04 ± 0.077 | 2.98 ± 0.048 | 3.14 ± 0.055
NYTGWKAISVGANTSAA [PRE9] | 1.23 ± 0.079 | 1.36 ± 0.076 | 1.24 ± 0.2 | 1.17 ± 0.062
PAAESKIFTPNLLQISA [SNF5] | 1.72 ± 0.12 | 2.04 ± 0.11 | 2.09 ± 0.14 | 1.55 ± 0.099
PAEHPFISAARYKPKSH [RPC37] | 2.99 ± 0.1 | 3.04 ± 0.082 | 2.66 ± 0.064 | 3.13 ± 0.066
PANNHQLGLQTVIRGNS [SMX2] | 3.02 ± 0.077 | 3.19 ± 0.086 | 2.91 ± 0.074 | 2.85 ± 0.053
PASDDILDNINHNGSAL [ITC1] | 2.9 ± 0.1 | 3.21 ± 0.096 | 3.06 ± 0.095 | 3.29 ± 0.078
PASKQGYLITPPKHTEL [SSN2] |  | 3.31 ± 0.3 | 2.49 ± 0.17 | 
PDENHDNTSHDEQDDDN [BRN1] | 3.11 ± 0.1 | 3.2 ± 0.095 | 3.05 ± 0.12 | 3.11 ± 0.1
PDENKTRVRLPSGAKKV [RPL2A] | 3.12 ± 0.075 | 2.96 ± 0.079 | 3.1 ± 0.037 | 3.08 ± 0.05
PDGLGEVGMKVQSGQIY [RET1] | 3.27 ± 0.14 | 3.15 ± 0.12 | 2.91 ± 0.094 | 3.21 ± 0.25
PDIVGHEFTLSFTYELK [BRR2] | 2 ± 0.038 | 2.06 ± 0.036 | 2.15 ± 0.05 | 2.21 ± 0.033
PDLPALEASYSKSYTPR [SMC4] | 2.28 ± 0.064 | 3.02 ± 0.088 | 2.75 ± 0.1 | 2.6 ± 0.071
